# Measured values reported in publication PMC3724861.
# Molecular target: T1, Caup homeodomain (Drosophila melanogaster) (UniProt P54269)
# T1 sequence: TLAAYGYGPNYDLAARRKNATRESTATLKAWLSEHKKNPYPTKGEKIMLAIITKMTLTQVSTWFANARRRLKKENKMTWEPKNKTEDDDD
# Conditions: PBM
row,Sequence,binding signal (minimum E-score of the two 8-mers)
1,ATACATGTA (double strand) [9-mer ATACATGTA],0.469
2,CTACATGTA (double strand) [9-mer CTACATGTA],0.476
3,CTACATGTC (double strand) [9-mer CTACATGTC],0.476
4,TACATGTAA (double strand) [9-mer TACATGTAA],0.468
5,AACATGTAC (double strand) [9-mer AACATGTAC],0.48
6,GACATGTAA (double strand) [9-mer GACATGTAA],0.468
7,AACATGTAT (double strand) [9-mer AACATGTAT],0.469
8,AACATGTAA (double strand) [9-mer AACATGTAA],0.468
9,ACATGTACA (double strand) [9-mer ACATGTACA],0.469
10,AACATGTAG (double strand) [9-mer AACATGTAG],0.476
11,ATGTACATG (double strand) [9-mer ATGTACATG],0.469
12,GTACATGTA (double strand) [9-mer GTACATGTA],0.48
13,TACATGTCA (double strand) [9-mer TACATGTCA],0.461
14,GACATGTAC (double strand) [9-mer GACATGTAC],0.477
15,ATACATGTC (double strand) [9-mer ATACATGTC],0.469
